Read-outs that look alike come from different tables or passages of the source.
Tests used:
Test in all cases: radioligand binding
[1] = molecular target: self-assembling peptide AcN-(KLDL)3-CNH2
[2] = molecular target: self-assembling peptide AcN-(KLDL)3-CNH2; remark: listed apart in the source
[3] = molecular target: self-assembling peptide AcN-(KLDL)3-CNH2; remark: listed apart in the source

percent of loaded released (cumulative), day 3 [1]: 13 to 16%
percent of loaded released (cumulative), day 7 [1]: 25%
percent of loaded released (cumulative), day 14 [1]: 27%
percent of loaded released (cumulative), day 21 [1]: 32%
percent of loaded retained in the hydrogel, day 21 [1]: 68%
uptake ratio (concentration in gel / concentration in bath) [1]: 18.5
percent of loaded released (cumulative), day 21 [2]: 44%
percent of loaded retained in the hydrogel, day 21 [2]: 56%
uptake ratio (concentration in gel / concentration in bath) [3]: 85.8
Substance: ^125I-TGF-β1 (radiolabelled transforming growth factor β1) (ligand)

From publication PMC3849134
